B1: KB_A01 GlyAla mutant (scFv on phage) (scFv, V domains shown)
VH: EVQLVESGGGLVRPGGSLRLSCAASGFTFSSYAMSWVRQAPGKGLEWVSAISGSGGSTYYADSVKGRFTISRDNTKNSLYLQMTSLRADDTAFYYCVKDFGPGYGTGWFDYWGPGTLVTVSS
VL: YLNWYQQKPGKAPKLLIYAAEVCGAILMRCKQDSDCLAGCVCGPNGFCGGTSGVPSRFSGSRSGTEFTLTISSLQPEDFATYYCQKVDDYPLTFGGGTKVEIKR
B2: KB_A11 GlyAla mutant (scFv on phage) (scFv, V domains shown)
VH: EVQLVESGGGLVRPGGSLRLSCAASGFTFSSYAMSWVRQAPGKGLEWVSAISGSGGSTYYADSVKGRFTISRDNTKNSLYLQMTSLRADDTAFYYCVKDFGPGYGTGWFDYWGPGTLVTVSS
VL: YLNWYQQKPGKAPKLLIYAAEICGAILMRCKQDSDCLAGCVCGPNGFCGPSSGIPARFSGSGYGTDFTLTINNIESEDAAYYFCLQHDNFPYTFGQGTKVEIKR

Target: trypsin
Assay: phage TRF, GlyAla mutant against parent clone

Binder | % reduction in binding signal [%]
B1 | 93
B2 | 100
